Experimental data as given in patent publication US20090075925A1, “Methods and Compositions Related to APOBEC-1 Expression” (priority 2006, published 2009).

Biological target: rat APOBEC-1 (endogenous, rat liver nuclear extract and McArdle cells) (rat)
Assay: cell-based or functional assay

apoB mRNA editing in stable McArdle cell lines: 67%
Substance: rat ACF64 S154D (from UniProt Q923K9 1-586)
